T1: high molecular weight kininogen (HK) (UniProt P01042 19-644)
T1 sequence (looked up): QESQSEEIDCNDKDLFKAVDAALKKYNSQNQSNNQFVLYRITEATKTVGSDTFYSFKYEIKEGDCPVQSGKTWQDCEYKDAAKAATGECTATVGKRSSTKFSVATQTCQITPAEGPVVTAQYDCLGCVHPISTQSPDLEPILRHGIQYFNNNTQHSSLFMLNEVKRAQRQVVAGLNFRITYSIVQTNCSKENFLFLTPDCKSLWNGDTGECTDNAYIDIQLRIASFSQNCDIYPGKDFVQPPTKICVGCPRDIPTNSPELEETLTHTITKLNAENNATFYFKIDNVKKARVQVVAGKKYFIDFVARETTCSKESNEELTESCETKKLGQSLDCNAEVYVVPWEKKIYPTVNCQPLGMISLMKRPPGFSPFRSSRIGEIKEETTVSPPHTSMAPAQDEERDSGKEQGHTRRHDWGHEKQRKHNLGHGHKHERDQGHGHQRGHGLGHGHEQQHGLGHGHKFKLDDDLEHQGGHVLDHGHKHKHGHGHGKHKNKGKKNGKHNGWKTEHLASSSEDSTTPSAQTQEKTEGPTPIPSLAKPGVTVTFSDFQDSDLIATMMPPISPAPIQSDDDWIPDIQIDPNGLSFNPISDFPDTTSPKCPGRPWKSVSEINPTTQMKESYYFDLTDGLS


Key:
[1] = biological target: T1, high molecular weight kininogen (HK); test: HK binding to recombinant gC1q-R deletion mutants (FIG. 7)
[2] = biological target: T1, high molecular weight kininogen (HK); test: solid phase ELISA, peptide on the plate
Source text: Several peptides were synthesized that correspond with the gC1q-R domains of very high negative charge and, which based on their location in the crystal structure on the solution-face, are hypothesized to interact with solution-phase ligands.

Binder	binding result [1]	binding result [2]
gC1q-R deletion mutant lacking residues 204-218 (receptor, human, UniProt Q07021 74-282, looked up, also called mutant lacking these residues) LHTDGDKAFVDFLSDEIKEERKIQKHKTLPKMSGGWELELNGTEAKLVRKVAGEKITVTFNINNSIPPTFDGEEEPSQGQKVEEQEPELTSTPNFVVEVIKNDDGKKALVLDCHYPEDEVGQEDEAESDIWKDTNYTLNTDSLDWALYDHLMDFLADRGVDNTFADELVELSTALEHQEYITFLEDLKSFVKSQ	no binding	
EDEVGQEDEAESD (Synthetic peptide coated on ELISA wells) [gC1q-R peptide (amino acids 190-202)]		binds
